Experimental data taken from IntAct's records for PubMed 16234233.

B1: Acid-sensing ion channel 3 (Rattus norvegicus (Rat)), O35240 (parent)
chain: MKPRSGLEEAQRRQASDIRVFASSCTMHGLGHIFGPGGLTLRRGLWATAVLLSLAAFLYQVAERVRYYGEFHHKTTLDERESHQLTFPAVTLCNINPLRRSRLTPNDLHWAGTALLGLDPAEHAAYLRALGQPPAPPGFMPSPTFDMAQLYARAGHSLEDMLLDCRYRGQPCGPENFTVIFTRMGQCYTFNSGAHGAELLTTPKGGAGNGLEIMLDVQQEEYLPIWKDMEETPFEVGIRVQIHSQDEPPAIDQLGFGAAPGHQTFVSCQQQQLSFLPPPWGDCNTASLDPDDFDPEPSDPLGSPRPRPSPPYSLIGCRLACESRYVARKCGCRMMHMPGNSPVCSPQQYKDCASPALDAMLRKDTCVCPNPCATTRYAKELSMVRIPSRASARYLARKYNRSESYITENVLVLDIFFEALNYEAVEQKAAYEVSELLGDIGGQMGLFIGASLLTILEILDYLCEVFQDRVLGYFWNRRSAQKRSGNTLLQEELNGHRTHVPHLSLGPRPPTTPCAVTKTLSASHRTCYLVTRL
partner: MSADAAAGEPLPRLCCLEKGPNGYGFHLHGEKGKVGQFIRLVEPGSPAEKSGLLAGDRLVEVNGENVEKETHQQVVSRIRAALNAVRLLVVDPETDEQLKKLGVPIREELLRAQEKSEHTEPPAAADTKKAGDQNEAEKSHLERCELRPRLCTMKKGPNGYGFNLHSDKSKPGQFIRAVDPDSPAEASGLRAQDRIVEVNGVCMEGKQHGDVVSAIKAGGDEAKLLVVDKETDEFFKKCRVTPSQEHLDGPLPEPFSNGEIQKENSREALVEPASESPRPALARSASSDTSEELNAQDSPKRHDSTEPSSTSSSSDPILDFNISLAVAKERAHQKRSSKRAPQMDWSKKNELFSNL

Variants of: B1
Settings: with nhrf1_rat Nherf1, Q9JJ19

effect of a mutation on the interaction | Variant
decreasing interaction | S523G
increasing interaction | S523D
